Measured values reported in patent US20230129812A1, “COMPOSITIONS AND METHODS FOR TREATING PULMONARY HYPERTENSION” (Acceleron Pharma Inc., priority 2020, published 2023).

Molecular target: T1, GDF8 (Homo sapiens, UniProt O14793)
T1 sequence (O14793 267-375): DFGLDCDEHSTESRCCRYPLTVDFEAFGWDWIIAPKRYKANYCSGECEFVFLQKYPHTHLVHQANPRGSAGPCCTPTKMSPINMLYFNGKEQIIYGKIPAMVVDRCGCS
Assay: Biacore ligand binding profile, ALK4-Fc:ActRIIB-Fc heterodimer vs homodimers, anti-Fc capture (Example 13, Table 13)

B1: ALK4-Fc:ActRIIB-Fc heterodimer: heteromeric complex of extracellular domains of human ActRIIB and human ALK4, each separately fused to an Fc domain with a linker (protein)
chain 1: GRGEAETRECIYYNANWELERTNQSGLERCEGEQDKRLHCYASWRNSSGTIELVKKGCWLDDFNCYDRQECVATEENPQVYFCCCEGNFCNERFTHLPEAGGPEVTYEPPPTAPTGGGTHTCPPCPAPELLGGPSVFLFPPKPKDTLMISRTPEVTCVVVDVSHEDPEVKFNWYVDGVEVHNAKTKPREEQYNSTYRVVSVLTVLHQDWLNGKEYKCKVSNKALPAPIEKTISKAKGQPREPQVYTLPPSRKEMTKNQVSLTCLVKGFYPSDIAVEWESNGQPENNYKTTPPVLKSDGSFFLYSKLTVDKSRWQQGNVFSCSVMHEALHNHYTQKSLSLSPGK
chain 2: SGPRGVQALLCACTSCLQANYTCETDGACMVSIFNLDGMEHHVRTCIPKVELVPAGKPFYCLSSEDLRNTHCCYTDYCNRIDLRVPSGHLKEPEHPSMWGPVETGGGTHTCPPCPAPELLGGPSVFLFPPKPKDTLMISRTPEVTCVVVDVSHEDPEVKFNWYVDGVEVHNAKTKPREEQYNSTYRVVSVLTVLHQDWLNGKEYKCKVSNKALPAPIEKTISKAKGQPREPQVYTLPPSREEMTKNQVSLTCLVKGFYPSDIAVEWESNGQPENNYDTTPPVLDSDGSFFLYSDLTVDKSRWQQGNVFSCSVMHEALHNHYTQKSLSLSPG
B1 was tested. Which “GDF8 binding” value (Example 13) did it give?
The value was “strong binding”.

And the ka (ligand GDF8, Table 13)?
Its ka is 390000 M⁻¹ s⁻¹.

What about the kd (ligand GDF8, Table 13) of the same molecule?
The kd was 0.00021 s⁻¹.
